Data: US20230212319A1, “NOVEL ANTIGEN BINDING DOMAINS AND SYNTHETIC ANTIGEN RECEPTORS INCORPORATING THE SAME” (University of Southern California, priority 2020, published 2023)
Positions count from the first letter of the chain named.

B1: 22151 (protein)
chain: MALPVTALLLPLALLLHAARPMLPAPKNLVVSRITEDSARLSWTAPDAAFDSFPIRYIETLIWGEAIWLDVPGSERSYDLTGLKPGTEYAVVITGVKGGRFSSPLVASFTTGTGGGGSGGGGSGGGGSEFSYVLTQPPSVSVAPGQTARITCGGNNIGGKSVHWYQQPPGQAPVVVVYDDSDRPSGIPERFSGSNSGNTATLTISRVEAGDEAVYYCQVWDSSSDHVVFGGGTKLTVLLEDLKNVFPPEVAVFEPSEAEISHTQKATLVCLATGFYPDHVELSWWVNGKEVHSGVCTDPQPLKEQPALNDSRYCLSSRLRVSATFWQNPRNHFRCQVQFYGLSENDEWTQDRAKPVTQIVSAEAWGRADCGFTSESYQQGVLSATILYEILLGKATLYAVLVSALVLMAMVKRKDSRGRAKRSGSGATNFSLLKQAGDVEENPGPTSMDWIWRILFLVGAATGAHSFEQLQLQESGPGLVKPSETLSLTCTVSGGSISSSSYFWGWIRQPPGKGLEWIGSIYYSGITYYNPSLKSRVTISVDTSKNQFSLKLSSVTAADTAVYYCARHDGAVAGLFDYWGQGTLVTVSSATRIQNPDPAVYQLRDSKSSDKSVCLFTDFDSQTNVSQSKDSDVYITDKCVLDMRSMDFKSNSAVAWSNKSDFACANAFNNSIIPEDTFFPSPESSCDVKLVEKSFETDTNLNFQNLSVIGFRILLLKVAGFNLLMTLRLWSSRAKRSGSGVKQTLNFDLLKLAGDVESNPGPSRGHMTEYKPTVRLATRDDVPRAVRTLAAAFADYPATRHTVDPDRHIERVTELQELFLTRVGLDIGKVWVADDGAAVAVWTTPESVEAGAVFAEIGPRMAELSGSRLAAQQQMEGLLAPHRPKEPAWFLATVGVSPDHQGKGLGSAVVLPGVEAAERAGVPAFLETSAPRNLPFYERLGFTVTADVEVPEGPRTWCMTRKPGA
B2: 10656 (protein)
chain: MALPVTALLLPLALLLHAARPEVQLVESGGGLVQPGGSLRLSCAASGFTFSDYFMSWVRQAPGKGLEWVATISNGGTYTYYPDSVKGRFTISRDNSKNTLYLQMNSLRAEDTAVYYCARFDGYIFDYWGQGTLVTVSSGGGGSGGGGSGGGGSDIQMTQSPSSLSASVGDRVTITCRASQDISNYLNWYQQKPGKAPKLLIYYTSRLHSGVPSRFSGSGSGTDFTLTISSLQPEDFATYYCQQGNTLPWTFGQGTKVEIKRTREQKLISEEDLAKPTTTPAPRPPTPAPTIASQPLSLRPEACRPAAGGAVHTRGLDFACDIYIWAPLAGTCGVLLLSLVITLYCKRGRKKLLYIFKQPFMRPVQTTQEEDGCSCRFPEEEEGGCELRVKFSRSADAPAYQQGQNQLYNELNLGRREEYDVLDKRRGRDPEMGGKPRRKNPQEGLYNELQKDKMAEAYSEIGMKGERRRGKGHDGLYQGLSTATKDTYDALHMQALPPR
modifications: Synthetic Polynucloetide
B3: 10384 (protein)
chain: MALPVTALLLPLALLLHAARPDIQMTQSPSSLSASVGDRVTITCKSSQSVLYSSNQKNYLAWFQQKPGKAPKLLIYWASTRESGVPSRFSGSGSGTDFTLTISSLQPEDFATYFCHQYLSSYTFGQGTKVEIKRLEDLKNVFPPEVAVFEPSEAEISHTQKATLVCLATGFYPDHVELSWWVNGKEVHSGVCTDPQPLKEQPALNDSRYCLSSRLRVSATFWQNPRNHFRCQVQFYGLSENDEWTQDRAKPVTQIVSAEAWGRADCGFTSESYQQGVLSATILYEILLGKATLYAVLVSALVLMAMVKRKDSRGRAKRSGSGATNFSLLKQAGDVEENPGPTSMDWIWRILFLVGAATGAHSFEEVQLVESGGGLVQPGGSLRLSCAASGFTFTTYWMHWVRQAPGKGLEWVGYIRPSTGYTEYNQKFKDRFTISADTSKNTAYLQMNSLRAEDTAVYYCARSRWLLDYWGQGTLVTVSTRIQNPDPAVYQLRDSKSSDKSVCLFTDFDSQTNVSQSKDSDVYITDKCVLDMRSMDFKSNSAVAWSNKSDFACANAFNNSIIPEDTFFPSPESSCDVKLVEKSFETDTNLNFQNLSVIGFRILLLKVAGFNLLMTLRLWSS
modifications: Synthetic Polynucloetide
B4: 10311 (protein)
chain: MALPVTALLLPLALLLHAARPEVQLVESGGGLVQPGGSLRLSCAASGYTFTSYWLHWVRQAPGKGLEWVGYIRPSTGYTEYNQKFKDRFTISADTSKNTAYLQMNSLRAEDTAVYYCARSRWLLDYWGQGTLVTVSSGGGGSGGGGSGGGGSDIQMTQSPSSLSASVGDRVTITCKSSQSLLYSSNQKNYLAWFQQKPGKAPKLLIYWASTRESGVPSRFSGSGSGTDFTLTISSLQPEDFATYFCHQYLSSYTFGQGTKVEIKRTREQKLISEEDLAKPTTTPAPRPPTPAPTIASQPLSLRPEACRPAAGGAVHTRGLDFACDIYIWAPLAGTCGVLLLSLVITLYCKRGRKKLLYIFKQPFMRPVQTTQEEDGCSCRFPEEEEGGCELRVKFSRSADAPAYQQGQNQLYNELNLGRREEYDVLDKRRGRDPEMGGKPRRKNPQEGLYNELQKDKMAEAYSEIGMKGERRRGKGHDGLYQGLSTATKDTYDALHMQALPPR
modifications: Synthetic Polynucloetide
B5: 10453 (protein)
chain: MALPVTALLLPLALLLHAARPEVQLVESGGGLVQPGGSLRLSCAASGYTFTTYWMHWVRQAPGKGLEWVGYIRPSTGYTEYNQKFKDRFTISADTSKNTAYLQMNSLRAEDTAVYYCARSRWLLDYWGQGTLVTVSLEDLKNVFPPEVAVFEPSEAEISHTQKATLVCLATGFYPDHVELSWWVNGKEVHSGVCTDPQPLKEQPALNDSRYCLSSRLRVSATFWQNPRNHFRCQVQFYGLSENDEWTQDRAKPVTQIVSAEAWGRADCGFTSESYQQGVLSATILYEILLGKATLYAVLVSALVLMAMVKRKDSRGRAKRSGSGATNFSLLKQAGDVEENPGPTSMDWIWRILFLVGAATGAHSFEDIQMTQSPSSLSASVGDRVTITCKSSQSLLYSSNQKNYLAWFQQKPGKAPKLLIYWASTRESGVPSRFSGSGSGTDFTLTISSLQPEDFATYFCHQYLSSYTFGQGTKVEIKRTRIQNPDPAVYQLRDSKSSDKSVCLFTDFDSQTNVSQSKDSDVYITDKCVLDMRSMDFKSNSAVAWSNKSDFACANAFNNSIIPEDTFFPSPESSCDVKLVEKSFETDTNLNFQNLSVIGFRILLLKVAGFNLLMTLRLWSS
modifications: Synthetic Polynucloetide
B6: 10380 (protein)
chain: MALPVTALLLPLALLLHAARPEVQLVESGGGLVQPGGSLRLSCAASGFTFTTYWMHWVRQAPGKGLEWVGYIRPSTGYTEYNQKFKDRFTISADTSKNTAYLQMNSLRAEDTAVYYCARSRWLLDYWGQGTLVTVSGGGGSGGGGSGGGGSDIQMTQSPSSLSASVGDRVTITCKSSQSVLYSSNQKNYLAWFQQKPGKAPKLLIYWASTRESGVPSRFSGSGSGTDFTLTISSLQPEDFATYFCHQYLSSYTFGQGTKVEIKRTREQKLISEEDLAKPTTTPAPRPPTPAPTIASQPLSLRPEACRPAAGGAVHTRGLDFACDIYIWAPLAGTCGVLLLSLVITLYCKRGRKKLLYIFKQPFMRPVQTTQEEDGCSCRFPEEEEGGCELRVKFSRSADAPAYQQGQNQLYNELNLGRREEYDVLDKRRGRDPEMGGKPRRKNPQEGLYNELQKDKMAEAYSEIGMKGERRRGKGHDGLYQGLSTATKDTYDALHMQALPPR
modifications: Synthetic Polynucloetide
B7: 10315 (protein)
chain: MALPVTALLLPLALLLHAARPDIQMTQSPSSLSASVGDRVTITCKSSQSLLYSSNQKNYLAWFQQKPGKAPKLLIYWASTRESGVPSRFSGSGSGTDFTLTISSLQPEDFATYFCHQYLSSYTFGQGTKVEIKRLEDLKNVFPPEVAVFEPSEAEISHTQKATLVCLATGFYPDHVELSWWVNGKEVHSGVCTDPQPLKEQPALNDSRYCLSSRLRVSATFWQNPRNHFRCQVQFYGLSENDEWTQDRAKPVTQIVSAEAWGRADCGFTSESYQQGVLSATILYEILLGKATLYAVLVSALVLMAMVKRKDSRGRAKRSGSGATNFSLLKQAGDVEENPGPTSMDWIWRILFLVGAATGAHSFEEVQLVESGGGLVQPGGSLRLSCAASGYTFTSYWLHWVRQAPGKGLEWVGYIRPSTGYTEYNQKFKDRFTISADTSKNTAYLQMNSLRAEDTAVYYCARSRWLLDYWGQGTLVTVSSTRIQNPDPAVYQLRDSKSSDKSVCLFTDFDSQTNVSQSKDSDVYITDKCVLDMRSMDFKSNSAVAWSNKSDFACANAFNNSIIPEDTFFPSPESSCDVKLVEKSFETDTNLNFQNLSVIGFRILLLKVAGFNLLMTLRLWSS
modifications: Synthetic Polynucloetide
B8: 10522 (protein)
chain: MALPVTALLLPLALLLHAARPDIQMTQSPSSLSASVGDRVTITCRASQDISNYLNWYQQKPGKAPKLLIYYTSRLHSGVPSRFSGSGSGTDFTLTISSLQPEDFATYYCQQGNTLPYTFGQGTKVEIKRLEDLKNVFPPEVAVFEPSEAEISHTQKATLVCLATGFYPDHVELSWWVNGKEVHSGVCTDPQPLKEQPALNDSRYCLSSRLRVSATFWQNPRNHFRCQVQFYGLSENDEWTQDRAKPVTQIVSAEAWGRADCGFTSESYQQGVLSATILYEILLGKATLYAVLVSALVLMAMVKRKDSRGRAKRSGSGATNFSLLKQAGDVEENPGPTSMDWIWRILFLVGAATGAHSFEEVQLVESGGGLVQPGGSLRLSCAASGYTFSDYFMSWVRQAPGKGLEWVATISNGGTYTYYPDSVKGRFTISRDNSKNTLYLQMNSLRAEDTAVYYCARFDGYIFDYWGQGTLVTVSSTRIQNPDPAVYQLRDSKSSDKSVCLFTDFDSQTNVSQSKDSDVYITDKCVLDMRSMDFKSNSAVAWSNKSDFACANAFNNSIIPEDTFFPSPESSCDVKLVEKSFETDTNLNFQNLSVIGFRILLLKVAGFNLLMTLRLWSS
modifications: Synthetic Polynucloetide
B9: 10660 (protein)
chain: B8 chain with Y117W, Y386F
modifications: Synthetic Polynucloetide
B10: 10591 (protein)
chain: B8 chain with N52S, Y386F
modifications: Synthetic Polynucloetide

System: U266 cells
Assay: JNG NFAT-GFP induction on co-culture with U266
Type: cell-based
Conditions: not given

For B1, which “NFAT-GFP ASSAY: U266” value is on record?
The value was 4+ (refer to approximately 5%, 10%, 20%, 30%, 40% and 50% GFP positive cells).

System: L363 cells
Assay: JNG assay, co-culture with L363 cells
Type: cell-based
Conditions: co-culture with L363
In short: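 Jurkat NFAT-GFP (JNG) cells stably transduced with SARs by lentivirus, with drug selection where the construct carried a resistance gene, then co-cultured with target cells at E:T ~1:2 for ~4–18 h. % GFP-positive cells measured by FACS against parental JNG; +/- to 5+ correspond to ~5–50% GFP-positive.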

B1 was tested. Which “NFAT-GFP ASSAY: L363” value did it give?
Its value is 2+ (refer to approximately 5%, 10%, 20%, 30%, 40% and 50% GFP positive cells).

System: SKOV3-Luc cells
Assay: SKOV3 xenograft in NSG mice
Conditions: 1 × 10^6 SKOV3-Luc s.c., a week later 3 × 10^6 SAR-T i.v.

With B2 as the molecule, how does the “tumor inhibition / protection, SKOV3 xenograft” value (“tumor inhibition / protection” below) read?
The value was “weak protection”.

B3 was tested. Which “tumor inhibition / protection” value did it give?
Its value is “tumor inhibition”.

With B4 as the molecule, how does the “tumor inhibition / protection” value read?
Its value is “weak protection”.

Which “tumor inhibition / protection” value does the source give for B5 here?
The value was “tumor inhibition”.

Which “tumor inhibition / protection” value does the source give for B6 here?
Its value is “weak protection”.

B7 was tested. Which “tumor inhibition / protection” value did it give?
The value was “tumor inhibition”.

For B8, which “tumor inhibition / protection” value is on record?
Its value is “tumor inhibition”.

For B9, which “tumor inhibition / protection” value is on record?
Its value is “tumor inhibition”.

Which “tumor inhibition / protection” value does the source give for B10 here?
The value was “tumor inhibition”.

Same assay, conditions: mouse, in vivo

Which “survival, SKOV3 xenograft” value does the source give for B3 here?
The value was “improvement in survival”.

B5 was tested. Which “survival, SKOV3 xenograft” value did it give?
The value was “improvement in survival”.

For B7, which “survival, SKOV3 xenograft” value is on record?
Its value is “improvement in survival”.

How did the “survival, SKOV3 xenograft” value turn out when B8 was run?
Its value is “improvement in survival”.

With B9 as the molecule, how does the “survival, SKOV3 xenograft” value read?
The value was “improvement in survival”.

With B10 as the molecule, how does the “survival, SKOV3 xenograft” value read?
Its value is “improvement in survival”.
